Laboratory results as given in paper PMC3155616 (Cell, 2011).

Target: E. coli SSB (wild type single-stranded DNA binding protein, homotetramer) (E. coli, UniProt P0AGE0 1-178)
Assay: ITC

Chain of E. coli SSB (wild type single-stranded DNA binding protein, homotetramer) (P0AGE0 whole entry): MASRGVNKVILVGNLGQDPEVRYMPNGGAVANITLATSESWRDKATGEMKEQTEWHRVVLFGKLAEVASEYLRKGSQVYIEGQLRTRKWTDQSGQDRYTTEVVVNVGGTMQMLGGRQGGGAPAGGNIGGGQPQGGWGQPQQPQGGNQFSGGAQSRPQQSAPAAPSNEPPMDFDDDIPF

B1: E. coli RecO protein (natural protein, UniProt P0A7H3 1-242, looked up)
chain: MEGWQRAFVLHSRPWSETSLMLDVFTEESGRVRLVAKGARSKRSTLKGALQPFTPLLLRFGGRGEVKTLRSAEAVSLALPLSGITLYSGLYINELLSRVLEYETRFSELFFDYLHCIQSLAGVTGTPEPALRRFELALLGHLGYGVNFTHCAGSGEPVDDTMTYRYREEKGFIASVVIDNKTFTGRQLKALNAREFPDADTLRAAKRFTRMALKPYLGGKPLKSRELFRQFMPKRTVKTHYE
Question: For B1, which “stoichiometry N” value is on record?
Answer: Its value is 1 RecO per SSB C-terminal tail (four tails per tetramer).
